Experimental data reported in patent publication US20220168345A1 (published 2022).

Biological target: T1, NY-ESO-1 peptide on HLA-B*07:02 (human)
T1 peptide: APRGPHGGAASGL
Assay: multimer staining
From the text: FIGS. 3A-3I are graphical representations of positive staining of Jurkat 76/CD8 cells transduced with B*07:02/NY-ESO-1₆₀₋₇₂ TCR genes with a cognate multimer. Jurkat 76/CD8 cells transduced with the B*07:02/NY-ESO-1₆₀₋₇₂ TCR (FIGS. 3B, 3E, and 3H) were stained with the B*07:02/NY-ESO-1₆₀₋₇₂ multimer (FIG. 3B). The B*07:02/MAGE-A1₂₈₉₋₂₉₇ multimer (FIGS. 3D, 3E, and 3F), B*07:02/unexchanged multimer (FIGS. 3G, 3H, and 3I), and B*07:02/MAGE-A1₂₈₉₋₂₉₇ TCR (FIGS. 3C, 3F, and 3I) were employed as controls, as well as Jurkat 76/CD8 not transduced with a TCR (FIGS. 3A, 3D, and 3G). The percentage of multimer⁺ CD8⁺ cells is shown.
T cells (1×10⁵) were incubated for 30 minutes at 37° C. in the presence of 50 nM dasatinib (LC laboratories). The cells were then washed and incubated with 5-10 μg/ml of multimer for 30 minutes at room temperature, and R-phycoerythrin-conjugated AffiniPure Fab fragment goat anti-mouse IgG1 (Jackson ImmunoResearch Laboratories) was added for 15 minutes at 4° C. Next, the cells were washed three times and costained with an anti-CD8 mAb for 15 minutes at 4° C. Dead cells were finally discriminated using the LIVE/DEAD Fixable Dead Cell Stain kit.

- binding result: recognises
B1: B*07:02/NY-ESO-1 60-72 TCR (TCR, V domains shown)
Valpha: AQSVTQLDSHVSVSEGTPVLLRCNYSSSYSPSLFWYVQHPNKGLQLLLKYTSAATLVKGINGFEAEFKKSETSFHLTKPSAHMSDAAEYFCVVSFSGNTPLVFGKGTRLSVIA
Vbeta: DTGVSQDPRHKITKRGQNVTFRCDPISEHNRLYWYRQTLGQGPEFLTYFQNEAQLEKSRLLSDRFSAERPKGSFSTLEIQRTEQGDSAMYLCASSSSYSNQPQHFGDGTRLSIL
